Assay results reported in publication PMC4562997, “Study of light-induced MscL gating by EPR spectroscopy” (European Biophysics Journal, 2015).

T1: G22C MscL, StrepII-tagged, labelled with the light switch at cysteine 22 (E. coli, UniProt P0A742 1-136, G22C, cysteine 22 alkylated with the light switch (iodoacetate bearing the photocleavable protecting group 6-nitroveratryl alcohol))
T1 construct: MscL, mechanosensitive channel of large conductance, E. coli; also called light switch-labeled-StrepII-tagged MscL; not shown: StrepII, C-terminal, kept
T1 sequence (looked up): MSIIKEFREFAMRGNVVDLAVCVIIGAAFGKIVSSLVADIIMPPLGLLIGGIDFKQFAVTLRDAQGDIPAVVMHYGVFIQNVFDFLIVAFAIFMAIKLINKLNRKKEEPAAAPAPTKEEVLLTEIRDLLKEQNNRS


Key:
[1] = target: the molecule itself; test: cell-based or functional assay
[2] = target: the molecule itself; test: chromatofocussing; protein purified in LDAO, detergent exchanged to Triton X-100 by size-exclusion chromatography, then chromatofocussing; pI compared with that of the pentamer
[3] = target: the molecule itself; test: CW-EPR, intersubunit spin-spin interaction (spectral broadening); heteropentamers with 1, 2 or 3 light switches reconstituted in asolectin liposomes, room temperature, X-band; maximally (10:1) against minimally (1:10) spin-labelled channels
[4] = target: T1, G22C MscL, StrepII-tagged, labelled …; test: sequential affinity chromatography (Ni-NTA, then Streptactin) + chromatofocussing; 6His-tagged and StrepII-tagged proteins purified in LDAO, mixed 1:1 (v/v), 45 min at room temperature, detergent exchanged to Triton X-100 by size exclusion; homopentamers removed on the two columns, heteropentamers separated on Mono P by pI; conditions: both partners purified
[5] = target: the molecule itself; test: native gel or EMSA; blue native gel (8-16 % gradient); pure G22C MscL incubated 1 h at room temperature with urea, guanidinium hydrochloride or trifluoroethanol (various detergents also screened)

binding result [4]	Binder	calcein dequenching assay of MscL reconstituted into liposomes, percent release; after exchange of LDAO to Triton X-100 (same protein:lipid ratio) [1]	stoichiometry N [2]	binding result [3]	stoichiometry N [5]
–	G22C-Strep MscL, unlabelled, after detergent exchange from LDAO to Triton X-100 (natural protein, E. coli, UniProt P0A742 1-136, looked up, MscL, mechanosensitive channel of large conductance, E. coli) MSIIKEFREFAMRGNVVDLAVCVIIGAAFGKIVSSLVADIIMPPLGLLIGGIDFKQFAVTLRDAQGDIPAVVMHYGVFIQNVFDFLIVAFAIFMAIKLINKLNRKKEEPAAAPAPTKEEVLLTEIRDLLKEQNNRS	85%	5	–	–
binds	G22C MscL, 6His-tagged, labelled with the EPR spin label at cysteine 22 (natural protein, E. coli, UniProt P0A742 1-136, looked up, cysteine 22 labelled with (1-oxyl-2,2,5,5-tetramethylpyrrolin-3-methyl) methanethiosulfonate spin label (maximally, 10:1, or minimally, 1:10 label:protein), MscL, mechanosensitive channel of large conductance, E. coli; also called EPR spin-labeled- His-tagged MscL; source: E. coli PB104 (mscL-null), p1BAD vector, purified in LDAO (Ni-NTA), spin-labelled in detergent solution; not shown: 6His, C-terminal, kept) MSIIKEFREFAMRGNVVDLAVCVIIGAAFGKIVSSLVADIIMPPLGLLIGGIDFKQFAVTLRDAQGDIPAVVMHYGVFIQNVFDFLIVAFAIFMAIKLINKLNRKKEEPAAAPAPTKEEVLLTEIRDLLKEQNNRS	–	–	binds	–
–	G22C MscL (mechanosensitive channel of large conductance, E. coli), pure, unlabelled, as run on the blue native gel (natural protein, UniProt P0A742 1-136, looked up, MscL, mechanosensitive channel of large conductance, E. coli; The denaturant treatment stands in the methods right after the isolation of the 6His-tagged protein, so the 6His form is likely; source: E. coli PB104 (mscL-null), p1BAD vector, purified from membrane vesicles) MSIIKEFREFAMRGNVVDLAVCVIIGAAFGKIVSSLVADIIMPPLGLLIGGIDFKQFAVTLRDAQGDIPAVVMHYGVFIQNVFDFLIVAFAIFMAIKLINKLNRKKEEPAAAPAPTKEEVLLTEIRDLLKEQNNRS	–	–	–	5
binds	I24C MscL labelled with the EPR spin label at cysteine 24 (natural protein, E. coli, UniProt P0A742 1-136, looked up, cysteine 24 labelled with (1-oxyl-2,2,5,5-tetramethylpyrrolin-3-methyl) methanethiosulfonate spin label, MscL, mechanosensitive channel of large conductance, E. coli; source: E. coli PB104 (mscL-null), p1BAD vector, purified, spin-labelled) MSIIKEFREFAMRGNVVDLAVGVCIGAAFGKIVSSLVADIIMPPLGLLIGGIDFKQFAVTLRDAQGDIPAVVMHYGVFIQNVFDFLIVAFAIFMAIKLINKLNRKKEEPAAAPAPTKEEVLLTEIRDLLKEQNNRS	–	–	binds	–
binds	A28C MscL labelled with the EPR spin label at cysteine 28 (natural protein, E. coli, UniProt P0A742 1-136, looked up, cysteine 28 labelled with (1-oxyl-2,2,5,5-tetramethylpyrrolin-3-methyl) methanethiosulfonate spin label, MscL, mechanosensitive channel of large conductance, E. coli; source: E. coli PB104 (mscL-null), p1BAD vector, purified, spin-labelled) MSIIKEFREFAMRGNVVDLAVGVIIGACFGKIVSSLVADIIMPPLGLLIGGIDFKQFAVTLRDAQGDIPAVVMHYGVFIQNVFDFLIVAFAIFMAIKLINKLNRKKEEPAAAPAPTKEEVLLTEIRDLLKEQNNRS	–	–	binds	–
